What was measured:
[1] = Enzyme activity ratio (Y1)=Vmax1/Vmax2 of conversion enzyme (Lineweaver-Burk); format: biochemical
Text: In the present invention, in the case where ribonucleoside diphosphate conversion enzyme (D) is used, an enzyme activity ratio (Y1) calculated from the following formula (1) using enzyme activity Vmax1 and enzyme activity Vmax2 described below is preferably not lower than 0.1 in terms of efficient polysaccharide production and efficient use of the substrate (ribonucleoside diphosphate-monosaccharide (A)). Enzyme activity ratio (Y1)=Vmax1/Vmax2 (1) • Enzyme activity Vmax1: the enzyme activity of ribonucleoside diphosphate conversion enzyme (D) on ribonucleoside diphosphate. • Enzyme activity Vmax2: the enzyme activity of ribonucleoside diphosphate conversion enzyme (D) on ribonucleoside diphosphate-monosaccharide (A).
An enzyme reaction solution (II) containing specific amounts of substrate (ribonucleoside diphosphate or uridine diphosphate-monosaccharide (A)), enzyme (polysaccharide synthase (B) or ribonucleoside diphosphate conversion enzyme (D)), pH adjuster (K), and water is prepared, which is adjusted to a specific temperature and a specific pH. • Phosphate-containing compound (F) is added, if necessary, to the enzyme reaction solution (II) if the enzyme to be used is (D4). Reducing agent (d6) is added if the enzyme is (D6), and raw material (d7) of nucleotide sugar is added if the enzyme is (D7).
After preparation of the enzyme reaction solution (II), it is allowed to stand for enzyme reaction for 1 minute to 100 hours. Next, the amount (X) of the reaction product obtained from the reaction is measured to determine the initial enzyme reaction velocity v. Likewise, the initial enzyme reaction velocity v is determined, using the enzyme reaction solution (II) having a different substrate concentration. A Lineweaver-Burk plot is generated from the above-obtained initial enzyme reaction velocity v and substrate concentration, and the enzyme activity Vmax is determined therefrom.
The enzyme activity Vmax (M/s) is determined using Lineweaver-Burk plot derived from Michaelis-Menten kinetics. […]
In the above measurement, the result determined using ribonucleoside diphosphate conversion enzyme (D) as an enzyme and ribonucleoside diphosphate as a substrate represents Vmax1, and the result determined using ribonucleoside diphosphate conversion enzyme (D) as an enzyme and ribonucleoside diphosphate-monosaccharide (A) as a substrate represents Vmax2. In the case where two or more types of ribonucleoside diphosphate-monosaccharide (A) are used, Vmax2 is determined for each ribonucleoside diphosphate-monosaccharide (A). The enzyme activity ratio (Y1) is also determined for each type from formula (1) using each Vmax2. […]

[2] = Specific activity of ribonucleoside diphosphate conversion enzyme solutions (TLC, UV 260 nm); format: biochemical; settings: 1 mM uridine diphosphate, 30° C., pH 7.0, with the co-substrate of each enzyme
Procedure: Reaction solution (2) was prepared by adding 10 μL of 1 M sucrose aqueous solution and 10 μL of sucrose synthase aqueous solution (D7-1) to 1 mL of aqueous solution R (50 mM phosphate buffer (pH of 7.0) containing 100 mM sodium chloride, 10 mM magnesium chloride, and 1 mM uridine diphosphate). Three such reaction solutions (2) were prepared and allowed to react at 30° C. for 5 minutes, 10 minutes, and 15 minutes, respectively. As for the amount of compound (C-7) as the reaction product (uridine diphosphate-glucose), the reaction product was developed on TLC (PEI-Cellulose plate available from Sigma-Aldrich Corporation, hereinafter the same) (developing solvent: an aqueous solution containing 1 M LiCl and 1 M formic acid, hereinafter the same), and detected with a UV light (260 nm). The specific activity of sucrose synthase aqueous solution (D7-1) was calculated to be 0.3 U/μL from the relationship between the yield of compound (C-7) and the reaction time.
Reaction solution (3) was prepared by adding 0.1 mg of reduced thioredoxin and 10 μL of ribonucleotide diphosphate reductase aqueous solution (D6-1) to 1 mL of aqueous solution R. Three such reaction solutions (3) were prepared and allowed to react at 30° C. for 5 minutes, 10 minutes, and 15 minutes, respectively. As for the amount of compound (C-6) as the reaction product (deoxyuridine diphosphate), the reaction product was developed on TLC and detected with a UV light (260 nm). The specific activity of ribonucleotide diphosphate reductase aqueous solution (D6-1) was calculated to be 0.3 U/μL from the relationship between the yield of compound (C-6) and the reaction time. […]
Reaction solution (5) was prepared by adding 10 μL of nucleotidase aqueous solution (D3-1) to 1 mL of aqueous solution R. Three such reaction solutions (5) were prepared and allowed to react at 30° C. for 5 minutes, 10 minutes, and 15 minutes, respectively. For the amount of compound (C-3) as the reaction product (uridine monophosphate), the reaction product was developed on TLC and detected with a UV light (260 nm). […]

Row | Substance | enzyme activity ratio (Y1) of each type ([1]; Vmax2 substrates UDP-glucuronic acid, -N-acetylglucosamine, -N-acetylgalactosamine, -glucose, -mannose, -glucosamine) | specific activity [2] [U/μL] | enzyme activity ratio (Y1) ([1]; Vmax2 substrate uridine diphosphate-N-acetylglucosamine) | enzyme activity ratio (Y1) ([1]; Vmax2 substrate uridine diphosphate-glucuronic acid) | enzyme activity ratio (Y1) of each type ([1]; Vmax2 substrates uridine diphosphate-glucuronic acid and uridine diphosphate-N-acetylglucosamine)
1 | pyruvate kinase aqueous solution (D4-1-1): pyruvate kinase, SEQ ID NO: 4, derived from Escherichia coli | ≥ 10 | 0.3 | – | – | –
2 | sucrose synthase aqueous solution (D7-1): sucrose synthase, SEQ ID NO: 2, derived from Vicia faba | – | 0.3 | ≥ 10 | ≥ 10 | –
3 | polyribonucleotide nucleotidyltransferase aqueous solution (D5-1): polyribonucleotide nucleotidyltransferase, SEQ ID NO: 6, derived from Escherichia coli | – | 0.3 | – | – | ≥ 10

Reference: US9670514B2, “Method for producing polysaccharide” (SANYO CHEMICAL INDUSTRIES, LTD., priority 2011, dated 2017)
